# Read-outs that look alike come from different tables or passages of the source.
# T1: MsCAPP PP domain (MsPP111-328) (Marinitoga sp. 1137, UniProt PDB:7QAZ_1 1-219)
# T1 sequence: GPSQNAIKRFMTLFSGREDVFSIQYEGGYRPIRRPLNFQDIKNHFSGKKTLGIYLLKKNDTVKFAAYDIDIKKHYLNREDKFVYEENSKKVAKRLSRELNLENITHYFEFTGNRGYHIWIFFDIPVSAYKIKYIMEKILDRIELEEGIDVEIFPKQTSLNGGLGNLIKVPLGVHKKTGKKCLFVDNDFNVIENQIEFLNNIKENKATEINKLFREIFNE
# How the values were obtained:
# [1] = molecular target: T1, MsCAPP PP domain (MsPP111-328); experiment: X-ray crystallography
# [2] = molecular target: T1, MsCAPP PP domain (MsPP111-328); experiment: X-ray crystallography; remark: listed apart in the source
binder,measurement,setting,value
AAAAATCAA (ssDNA) [primer initiation template 9-mer],binding result,[1],binds
dsDNA 6-mer (dsDNA) DNA 1: CGTGCG DNA 2: CGTGCG,binding result,[2],binds

# From publication PMC9149119
